Our source for the Kd values is patent US20220127309A1.

In assay [1] the target is Ectodomain of RSV F (1-520) - DScav mutations - HIV GP160-based SSM (Respiratory Syncytial virus). Description: ELISA, printed as affinity (FIG. 1B).
Assay [2] has as its target Ectodomain of RSV F (1-513) - DScav mutations - Foldon SSM (Respiratory Syncytial virus). Description: ELISA, printed as affinity (FIG. 1B).
Assay [3] deals with Ectodomain of RSV F (1-520) - HIV GP160-based SSM (Respiratory Syncytial virus). Description: ELISA, printed as affinity (FIG. 1A).
Assay [4] has as its target Ectodomain of RSV F (1-520) - DScav mutations - HIV GP160-based SSM (Respiratory Syncytial virus). Description: ELISA, printed as affinity (FIG. 1C).
The target in assay [5] is Ectodomain of RSV F (1-513) - DScav mutations - Foldon SSM (Respiratory Syncytial virus). Description: ELISA, printed as affinity (FIG. 1C).

As for “Prefusion specific monoclonal antibody D25”, the dissociation constant Kd in assay [1] turned out to be 1.2 nM; in assay [2], 1.3 nM; in assay [3] it was 23.4 nM.
For the substance “Broadly cross-neutralizing, prefusion specific monoclonal antibody MPE8”, the results for the Kd in assay [4] and in assay [5] were 7.6 nM and 10.8 nM, respectively.
